Measured values from the supplement of paper PMC9170038.

test system: K4 kissing-loop RNA reporter; assay: apparent KD of K4 kissing-loop reporter; higher = weaker reporter binding; conditions: Eterna round: R107; input ligand: arginine 13.2 mM
Method: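 RNA-MaP round R107: designed RNA switches with theophylline, tryptophan, arginine or FMN aptamers are transcribed on-chip within common flanks. They are titrated with a labelled K4 kissing-loop RNA reporter in RNA-MaP buffer (100 mM Tris pH 7.5, 80 mM KCl, 4 mM MgCl2), without ligand or with the indicated ligand. Median apparent KD per design.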
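Also: bound reporter read as fluorescence of individual clusters on recovered sequencing chips by microscopy, with normalized cluster intensities fitted with a binding model.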

Sequence | apparent KD of K4 kissing-loop reporter
GUAUGUGGAAACACGUACUUAUAUCCUAGGCAGGAUAUGCGGAAACGCAGAAGGGCCACCGGCGAGUUUAUCCAGUGAUGUUGGA [Ex FMN A 8] | 253 nM
AUUAAUUUCAGAGGAUAUCGUUAUUUUUUUAAGUAUAAUCUAUUAUGCAGUGAUGUUGCUAUUAAUCGAGAAGGCUGAUUUAUAA [JR_ExcFMNB_Sub001] | 141 nM
AACCUACGAUCACAAUAGUGAUUGUAGGACUAGGAUAUGCUGAAAAGCAGAAGGAGUGAUGUUCCACUCAUGAAUAACAUGAGAA [FmnAX 4 #OpenEnded #K4Late #CoaxialStacking] | 340 nM
UGAUAGGACAGAAGGAGCGGUAGUGAUGUUACCAAAAGGAUAAGGUGUCAAAAGACACCCUACCAGGUAGGUCGCUGUCCUAUCU | 112 nM
GCGCGUCAUGUCAGCGGUGACUAUGUCGAUACCAGCAGGGAAACCUGCCCUUGGCAGCGACGCGCUGGAGUGAUGUUCCGACGGC [#2 Exclusion - Theophylline A Attempt #8 (HarryS)] | 153 nM
AGAGAUAUAUGAGGAUAUGAGUUAGUUAAUGAGUUAGUUUUAGUGUUGUUUGGUUAGUGAUGUUAUUUAGAAGGCGUGAGUGAUG [cxfsmullin] | 66.4 nM
AAAUCUUUCAGAAGGAGCGUGGAUUAUUCUUAUAUAUUUAUUACGAGUGAUGUUCGUAAUUCACAGGUAGGUCGCUGAUCAAUAA [JR_ExcArginiB_Sub006] | 105 nM
UGUCAUUGGUCUGAUACCAGCUUGAUCGGAAACGAUCUGCUGGAGUGAUGUUCCAAGUAAAGCCCUUGGCAGCAGACCGAUGACU [TheoBS 8 #SwitchBubble #StaticStem] | 59.8 nM
GUAGAUAGGCUACAUCUCUAGUCUAAAGACUAGGAUAUCAGGAAACUGAGAAGGAGUCUCAUUGGAGUGAUGUUCCAAGAAUAAU [KL-SSFMN-A16] | 106 nM
CGUUUAUAGCAGGAUACCAGUACCCAUAAAGUACGUUAAUAGUAGAGUGAUGUUCUAAAGUACCCUUGGCAGCUUAGAGUGAGUG [ExTheophylB.Q] | 159 nM
GCCGCCGCGGCAGGAUAUAGACAUUGAGUGAUGUUCGGUGCUUAUCCAAAGUGCUGUUUCGGCCAACUAGAAGGGCCGCGGCGGC | 94 nM
GCGCGUCAUGUCAGCGGUGACUCUGUCGAUACCAGCGCCGCAAGGCGCCCUUGGCAGCGACGCGCUGGAGUGAUGUUCCAGCGUG [#2 Exclusion - Theophylline A Attempt #13 (HarryS)] | 142 nM
UGAUAGGACAGAAGGAGCGGUAGUGAUGUUACCAAAAGGUUAAGGUGUCAAAAGACACCCUACCAGGUAGGUCGCUGUCCUAUCU | 164 nM
ACCUAGUAGACAGGAUAUCACGAUGACAGUGAUGUUGUCAUCAUCGAUUUGAGGAAACUCAGAUCGUGAGAAGGGUCUAACGACU [FMN B SS t7a] | 173 nM
AAACUCAGUGAUGUUGAGUGGGAGCGGGAUACCAGAUCGCCCAUCAUCCCUUGGCAGCCCGAGCGUCAGAAUACAUUUCAUUUGC [theeternabot_sameState_KL_Theo_A_6] | 349 nM
AUAGGAUUGCGAGGAUAUCCUUCCCACGUCGAAGUACCGUGCUUGAUGGAGUGAUGUUCGAUCAGAGGAGAAGGUGCGGUUUUGU [Same State FMN B GF24] | 593 nM
UAGCGCAACCUGCUUACGUAUGAGCCGGAAGGAGCGGCAGAAUUGCCAGGUAGGUCGCCGGCCCAGUGAUGUUGGGAUGGUGUGG [Usritiis] | 226 nM

Sequence | apparent KD of K4 kissing-loop reporter
CGCUUGCACGGAAGGAGCGUCCAAGCGAGACACGAGUGAUGUUCGUGAUCGACGUAAACUGGACAGGUAGGUCGCCGUGCUUAAU [Eresti] | 91 nM
CGCUUGGGUGCGGCCGCCACUAGAGCGUGACACGGGUCCCAAAAGGGUGCAGUGAUGUUGCAGCCUAGGACCGGGCACCUCUGGC [Beveesbe] | 83 nM
GCUAUGGUAGGAAGGAGCGCUUGCUCGGUCAUAUGAGUGAUGUUCGAGACCGAGCAUUUAUAGCAGGUAGGUCGCCUACUAUAGC [Arginine B K4 8] | 223 nM
UUUUAUUCGUACUUCUAGUGAUGUUAGAUUCGAGGACCGGUACGGCCGCCACUCGUUAAGGCGAUUUUAUAUUUUUUAUUCUUUA [JR_SSTryptoA_Sub012] | 165 nM
UACUUAUAGUUAUUUCUAAAUUUAUUUAGUCAGGAUAUCGAAUAGUCGAGAAGGGACAUAAUCAAGUGAUGUUUGAUUAUUCAAA [JR_SSFMNA_Sub023] | 96.1 nM
UAUUAAUUGUCAGGAUAUCGAAAUCGAGUGAUGUUCGUAAAUUAAUUAUUAUUAAUAAUAUUUAAACGAGAAGGGACAUUAUUUA [JR_SSFMNB_Sub001] | 558 nM
UAACUCUUGCAGUGAUGUUGCAAGUAAGCUCAGGAUAUCAGGAAACUGAGAAGGGAGCAUCCUGAGCAACUGCAAGAGCUCAGAA [[K1]-[K2]-[F1]-[F2]-[F]'-[K]'-[F]''_Design1] | 101 nM
GGCACGGUAACGCAACCGCCGUGCGCUUGGGAGGAUAUGUUUCGUGACAGAAGGCCCAGUGAUGUUGGGUCUGUUCAAAAGGACU [Ceenerus] | 124 nM
UGAUAGGACAGAAGGAGCGGGAGUGAUGUUCCCAAAAGGGUAAGGUGUCAAAAGACACCCUUCCAGGUAGGUCGCUGUCCUAUCU | 105 nM
GCCGUAGAUUGAAGGAGCGGUAUGGGCGUUGGCUGAGUGAUGUUCAGGGAAAGUGGCUUCUACCAGGUAGGUCGCAAUCUACGGC | 129 nM
UGUAUGUGAUUUGAUACCAGACCAGCUGGUGGUUCACGAGUGAUGUUCGUGUUGGUUUGGGUCCCUUGGCAGCAAAUCGCAUACU [KL-SSTheoB12] | 121 nM
ACGUGCACCAGUGAUGUUGGAAAAUAUGAAGGAGCGGGUGAAAGCCCAGGUAGGUCGCAUAAUAGCACGAGCCACGAAAGUGGCA | 175 nM
CGCAGUGAUGUUGUGAUUAACUACAGGGAAGGAGCGUGCUAGAGCACAGGUAGGUCGCCCAGUGGCCGAGUGAUGUUCGGCGGGU [Same State Arginine A GF 27] | 189 nM
UUUGUAGAGGGAAGGAGCGUGAAAGAGAAAGAAUAUAGUGAUGUUAUAUAGAAGAAAGAAUCACAGGUAGGUCGCCCGGAGGAGG [SSArgB.E] | 436 nM
ACACGUGUGGCAGGAUAUCGGGCUGUGGAUCGGCUGGUUGCUUAUUCUCGACCAGUGAUGUUGGUACGAGAAGGGCUACCCAGAA [Diorce] | 113 nM
AGGAGCGUGCGAUGCAAAUCGCACGCUCCUCGAGGACCGGUACGGCCGCCACUCGCUCGCGCCGAGUGAUGUUCGGCCGGCGAAC [#2 Same State - Tryptophan A Attempt #10 (HarryS)] | 236 nM

same assay, conditions: Eterna round: R107; input ligand: none

Sequence | apparent KD of K4 kissing-loop reporter
UGUCAUUGGUCGGCCGCCACUUCAUGUAGAGUGAUGUUUUGUAGGACGGAUCGAAAGAUCUGUCGGAGGACCGGGACCGAUGACU [FiskerMod 16 - Jieux - Same State - Tryptophan B] | 134 nM
ACGUCCGGAUUAAUCGUGGGCAUGGUCGAUACCAGAUCUUUAAUGAUCCCUUGGCAGCGACAUGAGUGAUGUUCAUGUGCGAUGA [KL-XTheo-A8 #analogue] | 186 nM
GGAUGCAUAGUAGAUACCAGCAAGCUCGGAUAGUGAUGUUGUUCGCAGUCAUUUCGGUAGUGCCCUUGGCAGCUAGACGCCCGAU [theeternabot_exclusion_KL_Theo_B_36] | 104 nM
GAGGCCAGACUGAGUGAUGUUUAGUAUGAUACCAGUAUCGAAGGAUACCCUUGGCAGCAUGCCACGGCCUCGGCGGGAAACCGCC | 1000 nM
GAGUCCUUUGAAGGAUAUAGACGUCCCGAUCACUCAGUUGGCGAGCGAGUGAUGUUCGUUCCUAUACUAGAAGGUCAAAGCCUCC [theeternabot_sameState_KL_FMN_B_32] | 211 nM
AGACUACCACACUGUCAAUAGACAGUGGACUAGGAUAUGCUGAUAAGCAGAAGGAGUGAUGUUCCUCGGUAGUCAAUAAAAUAAU [FmnAX 13 G28+C67] | 286 nM
CUCGAGUGAUGUUCGAUUAUUUAUACAGAUACCAGUGAAUUUUAACACCCUUGGCAGCUGGUAGUAUCGUUGUAAUUUACACAAG [JR_ExcTheophyA_Sub004] | 116 nM
GGGAAGGACGGAGGAUAUGCACUGAGGAGGAGAAUAUAGUGAUGUUAUAUAAGAGGAAGGAGCUGAGUAGAAGGCCGAGGAAAGG [whbob_SS_FMNB__2th207] | 134 nM
AGUGAUAUAUGAGGAUAUGGGAUUGUUAAUGAGUUAGUUUUAGUGUUGUUUGGUUAGUGAUGUUAUUUAGAAGGCGUGAGUGAUG [kuktrmullin] | 96 nM
UGUAAUUCGGCGGCCGCCACUGACCAUAGCCUUCGAUGGCCAGUGAUGUUGGCCUCUGGCUCUAACAGGACCGGGCCGAAUUGCG [Sotetiqu] | 178 nM
AAAGUUGAUGAGUUGGGUAUGUGUUCCGAAGGAGCGAGAAUUAUCUCAGGUAGGUCGCGGAAGAUGAGUGAUGUUCAUCUAUAAA [KL-XArg-A8 #analogue] | 162 nM
GUAUGUGGAAACACGUACUUAUAUCCUAGGCAGGAUAUGCGGAAACGCAGAAGGGCCACCGGCGAGUUUAUCCAGUGAUGUUGGA [Ex FMN A 8] | 294 nM
AUUAAUUUCAGAGGAUAUCGUUAUUUUUUUAAGUAUAAUCUAUUAUGCAGUGAUGUUGCUAUUAAUCGAGAAGGCUGAUUUAUAA [JR_ExcFMNB_Sub001] | 79.5 nM
AACCUACGAUCACAAUAGUGAUUGUAGGACUAGGAUAUGCUGAAAAGCAGAAGGAGUGAUGUUCCACUCAUGAAUAACAUGAGAA [FmnAX 4 #OpenEnded #K4Late #CoaxialStacking] | 410 nM
UGAUAGGACAGAAGGAGCGGUAGUGAUGUUACCAAAAGGAUAAGGUGUCAAAAGACACCCUACCAGGUAGGUCGCUGUCCUAUCU | 107 nM
GCGCGUCAUGUCAGCGGUGACUAUGUCGAUACCAGCAGGGAAACCUGCCCUUGGCAGCGACGCGCUGGAGUGAUGUUCCGACGGC [#2 Exclusion - Theophylline A Attempt #8 (HarryS)] | 154 nM
AGAGAUAUAUGAGGAUAUGAGUUAGUUAAUGAGUUAGUUUUAGUGUUGUUUGGUUAGUGAUGUUAUUUAGAAGGCGUGAGUGAUG [cxfsmullin] | 67.7 nM
AAAUCUUUCAGAAGGAGCGUGGAUUAUUCUUAUAUAUUUAUUACGAGUGAUGUUCGUAAUUCACAGGUAGGUCGCUGAUCAAUAA [JR_ExcArginiB_Sub006] | 91.1 nM
UGUCAUUGGUCUGAUACCAGCUUGAUCGGAAACGAUCUGCUGGAGUGAUGUUCCAAGUAAAGCCCUUGGCAGCAGACCGAUGACU [TheoBS 8 #SwitchBubble #StaticStem] | 103 nM
GUAGAUAGGCUACAUCUCUAGUCUAAAGACUAGGAUAUCAGGAAACUGAGAAGGAGUCUCAUUGGAGUGAUGUUCCAAGAAUAAU [KL-SSFMN-A16] | 89.2 nM
CGUUUAUAGCAGGAUACCAGUACCCAUAAAGUACGUUAAUAGUAGAGUGAUGUUCUAAAGUACCCUUGGCAGCUUAGAGUGAGUG [ExTheophylB.Q] | 117 nM
GCCGCCGCGGCAGGAUAUAGACAUUGAGUGAUGUUCGGUGCUUAUCCAAAGUGCUGUUUCGGCCAACUAGAAGGGCCGCGGCGGC | 119 nM
